Source: patent publication US12497460B2, “Anti-MSR1 antibodies and methods of use thereof” (REGENERON PHARMACEUTICALS, INC., priority 2018, dated 2025)

T1: PMA-treated THP-1 cells (endogenously expressed human MSR1) (Homo sapiens, UniProt P21757)
T1 construct: endogenous in cells; host or cells: THP-1 cells differentiated with PMA
T1 sequence (P21757 1-451): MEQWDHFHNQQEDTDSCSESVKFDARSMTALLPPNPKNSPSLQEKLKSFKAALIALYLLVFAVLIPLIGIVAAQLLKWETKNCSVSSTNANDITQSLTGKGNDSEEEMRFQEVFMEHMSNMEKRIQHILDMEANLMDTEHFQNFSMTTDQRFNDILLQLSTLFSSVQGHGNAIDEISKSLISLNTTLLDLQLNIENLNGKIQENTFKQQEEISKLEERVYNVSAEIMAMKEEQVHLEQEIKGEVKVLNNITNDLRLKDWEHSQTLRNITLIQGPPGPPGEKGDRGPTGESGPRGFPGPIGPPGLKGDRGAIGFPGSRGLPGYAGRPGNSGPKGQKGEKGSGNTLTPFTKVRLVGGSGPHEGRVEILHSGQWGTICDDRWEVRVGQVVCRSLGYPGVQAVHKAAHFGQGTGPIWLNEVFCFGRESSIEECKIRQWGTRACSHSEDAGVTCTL

T2: His9-hMSR1 (human MSR1 extracellular domain) (Homo sapiens, UniProt P21757)
T2 construct: human MSR1 extracellular domain expressed with a N-terminal nonahistidine tag; His9 (nonahistidine) (N); purchased R&D Systems 2708-MS
T2 sequence (P21757 77-451 limits assumed): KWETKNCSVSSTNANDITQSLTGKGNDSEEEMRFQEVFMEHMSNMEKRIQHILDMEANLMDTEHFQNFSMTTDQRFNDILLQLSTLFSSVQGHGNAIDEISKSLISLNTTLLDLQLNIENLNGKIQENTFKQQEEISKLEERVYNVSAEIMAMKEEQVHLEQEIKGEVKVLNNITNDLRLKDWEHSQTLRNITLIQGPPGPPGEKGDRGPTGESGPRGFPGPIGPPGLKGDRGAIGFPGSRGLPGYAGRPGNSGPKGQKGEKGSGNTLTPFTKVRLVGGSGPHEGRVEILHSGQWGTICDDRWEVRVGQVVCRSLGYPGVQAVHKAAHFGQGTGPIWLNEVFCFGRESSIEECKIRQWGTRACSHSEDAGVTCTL

T3: MSR1-mediated Dil-AcLDL uptake in HEK293.Myc.hMSR1 cells (Homo sapiens, UniProt P21757)
T3 construct: expressed in transfected cells; host or cells: HEK293 (lentiviral transduction, hygromycin selection)
T3 sequence (P21757 1-451): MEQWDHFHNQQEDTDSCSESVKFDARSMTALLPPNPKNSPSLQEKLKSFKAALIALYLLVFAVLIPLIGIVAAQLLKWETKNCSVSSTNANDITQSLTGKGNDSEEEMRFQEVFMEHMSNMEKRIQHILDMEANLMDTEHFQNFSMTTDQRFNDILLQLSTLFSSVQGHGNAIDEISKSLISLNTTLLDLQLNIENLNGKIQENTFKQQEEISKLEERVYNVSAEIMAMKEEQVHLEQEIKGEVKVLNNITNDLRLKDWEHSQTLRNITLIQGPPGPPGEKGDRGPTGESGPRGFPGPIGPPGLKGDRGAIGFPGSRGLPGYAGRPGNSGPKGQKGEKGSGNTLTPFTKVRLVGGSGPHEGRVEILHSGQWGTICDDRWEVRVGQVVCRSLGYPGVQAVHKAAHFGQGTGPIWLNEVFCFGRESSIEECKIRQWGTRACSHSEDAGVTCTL


Assays:
[1] = target: T1, PMA-treated THP-1 cells (endogenously expressed human MSR1); assay: Electrochemiluminescence antibody binding assay on MSR1-expressing cells; format: cell-based
parental HEK293 cells = assay: Electrochemiluminescence antibody binding assay, non-specific binding control cells; format: cell-based, human
[2] = tested on: HMM-mfMSR1 (monkey MSR1 extracellular domain); assay: OCTET bio-layer interferometry binding kinetics of anti-MSR1 mAbs; details: 25° C., analyte HMM-mfMSR1, NB = no binding observed
Procedure: (§1) Binding affinities and kinetic constants of human anti-MSR1 antibodies for different MSR1 reagents were determined using a real time, label-free bio-layer interferometry assay on an OCTET® HTX biosensor platform (Pall FortéBio Corp., Menlo Park, CA). The experiment was performed at 25° C. in 10 mM HEPES, 150 mM NaCl, 3 mM EDTA, 0.05% v/v Surfactant Tween-20, and 1 mg/mL BSA, pH7.4 (HBS-EBT) buffer with the plate shaking at the speed of 1000 rpm. Binding studies were performed on human MSR1 extracellular domain expressed with a N-terminal nonahistidine tag (His9-hMSR1; R&D Systems, Cat #2708-MS), monkey MSR1 extracellular domain expressed with a N-terminal myc-myc-hexahistidine tag (HMM-mfMSR1; SEQ ID NO: 418), and mouse MSR1 extracellular domain expressed with a N-terminal nonahistidine tag (His9-mMSR1; R&D Systems, Cat #1797-MS). The anti-MSR1 monoclonal antibodies were captured by dipping either anti-human Fc (AHC) or anti-mouse Fc (AMC) Octet biosensors in wells containing 5 μg/mL or 10 μg/mL of anti-MSR1 monoclonal antibody for 45-90 seconds. The AHC captured anti-MSR1 monoclonal antibodies were then dipped in wells containing 50 nM of His9-mMSR1, while the AMC captured anti-MSR1 monoclonal antibodies were dipped in wells containing different concentrations of His9-hMSR1 or HMM-mfMSR1 (100 nM, 25 nM) or 100 nM His9-mMSR1. The binding of different MSR1 reagents to the captured anti-MSR1 monoclonal antibody was measured for 4 minutes and the dissociation of monoclonal antibody bound MSR1 reagent was monitored for 8-10 minutes in HBS-EBT buffer.
(§2) The association rate (ka) and dissociation rate (kd) were determined by fitting the real-time binding sensorgrams to a 1:1 binding model with mass transport limitation using Scrubber 2.0c curve-fitting software. Binding dissociation equilibrium constant (KD) and dissociative half-life (t½) were calculated from the kinetic rates as: […]
(§3) Binding kinetics parameters for His9-hMSR1, HMM-mfMSR1 or His9-mMSR1 binding to different anti-MSR1 monoclonal antibodies of the invention at 25° C. are shown in Tables 8 and 9.

[3] = target: T2, His9-hMSR1 (human MSR1 extracellular domain); assay: as above; details: 25° C., analyte His9-hMSR1, NB = no binding observed
Procedure: as §1, §2, §3

[4] = target: T3, MSR1-mediated Dil-AcLDL uptake in HEK293.Myc.hMSR1 cells; assay: Ligand uptake assay, Dil-AcLDL; format: cell-based; details: 10 μg/mL Dil-AcLDL
Procedure: A bioassay was generated to assess the ability of the exemplary anti-MSR1 antibodies to regulate the uptake of certain MSR1 ligands.
Generation of MSR1-expressing cell lines for assay. […] The resulting cell line, referred to here as “HEK293.Myc.hMSR1”, was selected and maintained in DMEM containing 10% FIBS, NEAA, penicillin/streptomycin, L-glutamine, and 100 μg/mL hygromycin.
Ligand uptake assay. […] After 30 minutes, either oxidized or acetylated low-density lipoprotein (LDL) labeled with 1,1′dioctadecyl-3,3,3′,3′-tetramethylindocarbocyanine perchlorate (referred to as “Dil-OxLDL” or “Dil-AcLDL,” respectively) was added to the cells at a constant concentration of 10 μg/mL. […] Results were analyzed using nonlinear regression (4-parameter logistics) with the Prism 7 program to obtain EC50 and IC50 values. The percentage of inhibition was calculated with the Relative Fluorescent Unit (RFU) values by using the following equation: […]
In the equation, “RFUBaseline” is the fluorescence value from the cells treated with 10 μg/mL ligand without antibodies, “RFUInhibition” is the minimum fluorescence value with for a particular antibody with 10 μg/mL ligand, and “RFUBackground” is the fluorescence value from cells without any ligand or antibodies.

Sequence of HMM-mfMSR1 (monkey MSR1 extracellular domain) (as listed by the source): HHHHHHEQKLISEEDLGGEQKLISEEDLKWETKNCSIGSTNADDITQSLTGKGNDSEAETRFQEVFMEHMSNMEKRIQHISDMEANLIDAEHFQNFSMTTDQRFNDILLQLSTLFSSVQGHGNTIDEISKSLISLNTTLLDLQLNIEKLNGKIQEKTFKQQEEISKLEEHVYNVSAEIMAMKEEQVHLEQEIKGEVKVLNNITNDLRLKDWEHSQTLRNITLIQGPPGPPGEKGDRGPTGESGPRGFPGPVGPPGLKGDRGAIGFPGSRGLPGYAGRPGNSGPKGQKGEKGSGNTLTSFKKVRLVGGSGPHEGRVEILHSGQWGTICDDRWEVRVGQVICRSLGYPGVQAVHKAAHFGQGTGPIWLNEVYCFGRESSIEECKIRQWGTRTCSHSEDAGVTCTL

Molecule | Ratio of 11 nM Antibody Binding Signal (RLU) to isotype control, PMA-treated THP-1 [1] | Ratio of 11 nM Antibody Binding Signal (RLU) to isotype control, HEK293 (parental HEK293 cells) | ka [2] [M⁻¹ s⁻¹] | kd [2] [s⁻¹] | ka [3] [M⁻¹ s⁻¹] | kd [3] [s⁻¹] | Dil-Acetylated LDL IC50 [4] | maximum inhibition of Dil-AcLDL uptake [4] | Dil-Acetylated LDL % Inhibition ([4]; maximum inhibition)
H2aM25695N: one of "Twelve anti-MSR1 antibodies"; "an “H2aM” antibody has a mouse IgG2a Fc" (antibody, V domains shown) VH: QVQLQESGPGLVKPSETLSLTCTVTGGSISRNYWSWIRQPPGKGLEWIGYIYYSGSINYNPSLKSRVTISVDMSKNQFSLKLNSVTAADTAVYYCARDRWNWKYGMDVWGQGTTVIVSS VL: EIVLTQSPGTLSLSPGERATLSCRASQTVRNSYLAWYHQKPGQAPRLLIYGASSRATGIPDRFSGSGSGTDFTLTISRLEPEDFAVYYCQQYGSSYWTFGQGTKMEIKR | 8 | 5 | 312000 | 0.000571 | 360000 | 0.000527 | – | – | –
H2aM21229N: one of "Twelve anti-MSR1 antibodies"; "an “H2aM” antibody has a mouse IgG2a Fc" (antibody, V domains shown) VH: EVQLVESGGGLVKPGGSLRLSCAASGFTFSRYSMNWVRQAPGKGLEWVSSISSSSSYIYYGDTVKGRFTISRDNAKKSLYLQMNSLRAEDTAVYYCVRDRGQLVLYFDYWGQGTLVTVSS VL: DIQMTQSPASLSTSIRDRVTITCRASLSISSFLNWFQQRPGKAPKLLIYVASNLQSGVPSRFSDSGSGTDFTLTISSLQPEDFATYYCQQNYSTPPITFGQGTRLEIK | 56 | 36 | 135000 | 0.00222 | 300000 | 0.00021 | no inhibition | no inhibition | no inhibition
